Laboratory results as given in patent US20240000914A1.

Target: adeno-associated virus 2 (AAV2) vector capsid (AAV2-nLuc) (adeno-associated virus 2) (UniProt P03135)
Assay: cell-based or functional assay

Sequence of UniProt P03135 (P03135 whole entry, the tested form may be a part): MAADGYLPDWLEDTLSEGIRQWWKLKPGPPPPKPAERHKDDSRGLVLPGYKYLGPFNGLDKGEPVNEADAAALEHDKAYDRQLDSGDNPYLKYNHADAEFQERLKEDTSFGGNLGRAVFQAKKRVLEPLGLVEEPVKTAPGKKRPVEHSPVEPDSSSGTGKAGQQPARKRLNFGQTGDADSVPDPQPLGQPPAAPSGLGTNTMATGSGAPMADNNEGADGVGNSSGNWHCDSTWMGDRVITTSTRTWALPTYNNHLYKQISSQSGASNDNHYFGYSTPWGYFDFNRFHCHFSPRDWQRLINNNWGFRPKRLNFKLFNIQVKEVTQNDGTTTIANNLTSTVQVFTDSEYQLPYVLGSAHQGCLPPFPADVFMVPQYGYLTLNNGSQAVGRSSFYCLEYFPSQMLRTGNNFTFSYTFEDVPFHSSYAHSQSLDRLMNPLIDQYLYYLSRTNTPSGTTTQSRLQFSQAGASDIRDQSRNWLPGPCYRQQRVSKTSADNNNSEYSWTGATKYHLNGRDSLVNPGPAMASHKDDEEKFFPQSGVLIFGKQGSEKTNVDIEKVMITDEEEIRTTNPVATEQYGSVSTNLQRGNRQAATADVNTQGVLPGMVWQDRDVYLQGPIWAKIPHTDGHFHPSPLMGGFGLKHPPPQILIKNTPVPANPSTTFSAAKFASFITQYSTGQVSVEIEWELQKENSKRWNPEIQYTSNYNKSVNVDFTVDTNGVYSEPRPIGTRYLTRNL

human intravenous immunoglobulin (IVIG) (antibody)
50% geometric mean neutralizing reciprocal titer (50% GMT) (50% GMT (reciprocal titer)): 1280
neutralization of AAV2-nLuc transduction (reciprocal dilution): 1250
